From PMC3513293 (PLoS ONE, 2012)

Tests used:
[1] = biological target: T1, p97/Valosin-containing protein (VCP), full length (UniProt P55072 1-806); test: SPR; Biacore 3000; p47 immobilised on CM5 by amine coupling; p97/VCP injected, 30 μl/min, 25°C, PBS; Langmuir 1:1 fit; conditions: both partners purified
T1 construct: Homohexamer by gel filtration and DLS; also called p97/VCP; full length p97; source: E. coli Rosetta DE3, purified (nickel IMAC, Superose 6 gel filtration; hexameric 13.5 ml fraction)

[2] = biological target: the molecule itself; test: SEC; Superose 6 10/300 GL in PBS with 5 mM β-mercaptoethanol and 0.005% p20; calibrated with thyroglobulin, ferritin, lactate dehydrogenase and BSA
[3] = biological target: T1, p97/Valosin-containing protein (VCP), …; test: SPR; Biacore 3000; p97/VCP immobilised on CM5 by amine coupling; two-fold dilution series of p47 (from 1.92 μM) or UN (from 1.88 μM) injected at 30 μl/min, 25°C, PBS with 5 mM β-mercaptoethanol and 0.005% p20; no nucleotide; Langmuir 1:1 fit (p47) or Interaction Map Analysis (UN); conditions: both partners purified

T1 sequence (P55072 whole entry): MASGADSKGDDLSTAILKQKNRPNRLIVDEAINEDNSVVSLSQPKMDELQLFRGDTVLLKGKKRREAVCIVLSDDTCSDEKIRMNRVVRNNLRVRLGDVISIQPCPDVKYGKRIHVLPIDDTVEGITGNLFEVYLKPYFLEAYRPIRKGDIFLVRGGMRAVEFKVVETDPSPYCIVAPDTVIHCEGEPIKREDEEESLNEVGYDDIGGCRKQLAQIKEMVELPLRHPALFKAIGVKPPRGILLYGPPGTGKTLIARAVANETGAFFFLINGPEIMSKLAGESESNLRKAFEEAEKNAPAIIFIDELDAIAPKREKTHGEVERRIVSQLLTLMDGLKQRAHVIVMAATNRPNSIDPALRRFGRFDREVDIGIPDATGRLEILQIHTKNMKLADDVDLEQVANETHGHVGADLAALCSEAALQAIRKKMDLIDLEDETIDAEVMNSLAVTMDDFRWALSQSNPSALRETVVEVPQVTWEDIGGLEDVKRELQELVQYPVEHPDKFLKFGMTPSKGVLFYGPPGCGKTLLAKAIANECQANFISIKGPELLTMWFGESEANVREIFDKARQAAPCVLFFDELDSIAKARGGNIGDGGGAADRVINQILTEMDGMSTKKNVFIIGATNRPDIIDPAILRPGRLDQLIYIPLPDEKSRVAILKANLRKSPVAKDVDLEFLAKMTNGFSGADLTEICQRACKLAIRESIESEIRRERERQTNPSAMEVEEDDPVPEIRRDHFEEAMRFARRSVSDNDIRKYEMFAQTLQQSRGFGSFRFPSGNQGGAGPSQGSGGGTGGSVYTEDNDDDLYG

B1: p47 (natural protein, UniProt O35987 1-370, looked up)
chain: MAEERQDALREFVAVTGAEEDRARFFLESAGWDLQIALASFYEDGGDEDIVTISQATPSSVSRGTAPSDNRVTSFRDLIHDQDEEEEEEEGQRFYAGGSERSGQQIVGPPRKKSPNELVDDLFKGAKEHGAVAVERVTKSPGETSKPRPFAGGGYRLGAAPEEESAYVAGERRRHSGQDVHVVLKLWKTGFSLDNGDLRSYQDPSNAQFLESIRRGEVPAELRRLAHGGQVNLDMEDHRDEDFVKPKGAFKAFTGEGQKLGSTAPQVLNTSSPAQQAENEAKASSSILINEAEPTTNIQIRLADGGRLVQKFNHSHRISDIRLFIVDARPAMAATSFVLMTTFPNKELADENQTLKEANLLNAVIVQRLT
notes: p47, adaptor protein of p97/VCP; Homotrimer by gel filtration; the printed list of Addgene numbers (17229,21266,21267,21268) has one number more than the three plasmids named, so 21268 may be p47; source: E. coli Rosetta DE3, purified (nickel IMAC, Superose 6 gel filtration; 16.25 ml fraction)
- Kd [1]: 0.0313 µM
- stoichiometry N [2]: 3
- Kd [3]: ~5 µM
